Molecular target: FVa light chain (FVaL) derived from ΔFV or its mutants by thrombin (human) (UniProt P12259)
Test: cell-based or functional assay

UniProt P12259, sequence (P12259 other isoform, or with tags, fused parts or gaps mutant limits assumed): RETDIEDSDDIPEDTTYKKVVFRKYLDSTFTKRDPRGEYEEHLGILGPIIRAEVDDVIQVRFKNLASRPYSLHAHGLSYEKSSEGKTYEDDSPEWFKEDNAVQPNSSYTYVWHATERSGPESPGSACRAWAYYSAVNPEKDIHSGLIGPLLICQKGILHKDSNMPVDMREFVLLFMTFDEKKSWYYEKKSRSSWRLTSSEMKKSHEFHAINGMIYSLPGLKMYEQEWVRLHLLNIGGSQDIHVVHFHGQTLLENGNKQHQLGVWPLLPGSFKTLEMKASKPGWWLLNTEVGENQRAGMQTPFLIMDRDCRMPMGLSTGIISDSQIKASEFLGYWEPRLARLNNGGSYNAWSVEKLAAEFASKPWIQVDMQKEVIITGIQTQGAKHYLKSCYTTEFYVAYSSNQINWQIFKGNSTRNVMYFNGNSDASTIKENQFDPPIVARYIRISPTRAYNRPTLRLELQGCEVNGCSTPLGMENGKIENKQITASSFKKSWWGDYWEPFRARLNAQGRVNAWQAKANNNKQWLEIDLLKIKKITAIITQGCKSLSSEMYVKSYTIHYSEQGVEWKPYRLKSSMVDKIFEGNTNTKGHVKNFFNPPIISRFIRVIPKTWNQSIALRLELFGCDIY

An inhibition of ΔFV activity (prothrombinase function, thrombin generation) of 98% was found for “FVaH derived from ΔFV multipoint mutant ED/EDD (E96, D102, E108, D111 and D112 to Ala) (from UniProt P12259 29-737)” in this work.
